From article PMC13061240

Columns and labels:
[1] = target: beluga whale coronavirus (BwCoV) spike (S) glycoprotein ectodomain, 2P, GCN4 trimerization motif, Strep-tag (beluga whale coronavirus (BwCoV)); experiment: cryo-EM structure
[2] = target: bottlenose dolphin coronavirus (BdCoV) spike (S) glycoprotein ectodomain (23-1370), 2P, GCN4 trimeri (bottlenose dolphin coronavirus (BdCoV)); experiment: cryo-EM structure

Substance | stoichiometry N [1] | stoichiometry N [2]
beluga whale coronavirus (BwCoV) spike (S) glycoprotein ectodomain, 2P, GCN4 trimerization motif, Strep-tag (domain or fragment) | 3 | 
bottlenose dolphin coronavirus (BdCoV) spike (S) glycoprotein ectodomain (23-1370), 2P, GCN4 trimeri (domain or fragment) |  | 3
